To fix the notation:
B1: Copu9 (Coniophora puteana RWD-64-598 SS2; N228A) (protein)
chain: MSPTATFTTTSSEENAPTKFILPDLVSDCTYPLLLNDNCEPVARASEQWLIAGARLQEPRRTKFMGLLAGELTAACYPHADASHLRVCVDFMNWLFNMDDWLDDFDVDDTWGMRHCCLGAFRDPVGFETDKLGGLMSKSFFSRFRQDGGPGCTERFIHTMDLFFIAVAQQAGDRANGITPDLESYITVRRDTSGCKPCFALIEYAAGIDLPDHVIYHPTLAAMEEATADLVTWSNDIFSYNKEQVTDDTHNMIPVLMRERGLDLQGAVDFVGRLCKGTIERFETERARLPSWGPELDAQVQTYIEGLQNWIVGSLHWSFDSHRYFGKDGHAVKKHRIVKLLPKRVPQQA
notes: full-length, codon-optimized, N-terminal hexa-His tag (pET-M11), expressed in E. coli BL21 RIL DE3; homodimer; 13 N-terminal residues not visible in crystal
B2: Copu9 (Coniophora puteana RWD-64-598 SS2; S314N) (protein)
chain: MSPTATFTTTSSEENAPTKFILPDLVSDCTYPLLLNDNCEPVARASEQWLIAGARLQEPRRTKFMGLLAGELTAACYPHADASHLRVCVDFMNWLFNMDDWLDDFDVDDTWGMRHCCLGAFRDPVGFETDKLGGLMSKSFFSRFRQDGGPGCTERFIHTMDLFFIAVAQQAGDRANGITPDLESYITVRRDTSGCKPCFALIEYAAGIDLPDHVIYHPTLAAMEEATNDLVTWSNDIFSYNKEQVTDDTHNMIPVLMRERGLDLQGAVDFVGRLCKGTIERFETERARLPSWGPELDAQVQTYIEGLQNWIVGNLHWSFDSHRYFGKDGHAVKKHRIVKLLPKRVPQQA
notes: as for B1
B3: Copu9 (Coniophora puteana RWD-64-598 SS2; P197C) (protein)
chain: MSPTATFTTTSSEENAPTKFILPDLVSDCTYPLLLNDNCEPVARASEQWLIAGARLQEPRRTKFMGLLAGELTAACYPHADASHLRVCVDFMNWLFNMDDWLDDFDVDDTWGMRHCCLGAFRDPVGFETDKLGGLMSKSFFSRFRQDGGPGCTERFIHTMDLFFIAVAQQAGDRANGITPDLESYITVRRDTSGCKCCFALIEYAAGIDLPDHVIYHPTLAAMEEATNDLVTWSNDIFSYNKEQVTDDTHNMIPVLMRERGLDLQGAVDFVGRLCKGTIERFETERARLPSWGPELDAQVQTYIEGLQNWIVGSLHWSFDSHRYFGKDGHAVKKHRIVKLLPKRVPQQA
notes: as for B1
B4: Copu9 (Coniophora puteana RWD-64-598 SS2; T192N) (protein)
chain: MSPTATFTTTSSEENAPTKFILPDLVSDCTYPLLLNDNCEPVARASEQWLIAGARLQEPRRTKFMGLLAGELTAACYPHADASHLRVCVDFMNWLFNMDDWLDDFDVDDTWGMRHCCLGAFRDPVGFETDKLGGLMSKSFFSRFRQDGGPGCTERFIHTMDLFFIAVAQQAGDRANGITPDLESYITVRRDNSGCKPCFALIEYAAGIDLPDHVIYHPTLAAMEEATNDLVTWSNDIFSYNKEQVTDDTHNMIPVLMRERGLDLQGAVDFVGRLCKGTIERFETERARLPSWGPELDAQVQTYIEGLQNWIVGSLHWSFDSHRYFGKDGHAVKKHRIVKLLPKRVPQQA
notes: as for B1
B5: Copu9 (Coniophora puteana RWD-64-598 SS2; T73C) (protein)
chain: MSPTATFTTTSSEENAPTKFILPDLVSDCTYPLLLNDNCEPVARASEQWLIAGARLQEPRRTKFMGLLAGELCAACYPHADASHLRVCVDFMNWLFNMDDWLDDFDVDDTWGMRHCCLGAFRDPVGFETDKLGGLMSKSFFSRFRQDGGPGCTERFIHTMDLFFIAVAQQAGDRANGITPDLESYITVRRDTSGCKPCFALIEYAAGIDLPDHVIYHPTLAAMEEATNDLVTWSNDIFSYNKEQVTDDTHNMIPVLMRERGLDLQGAVDFVGRLCKGTIERFETERARLPSWGPELDAQVQTYIEGLQNWIVGSLHWSFDSHRYFGKDGHAVKKHRIVKLLPKRVPQQA
notes: as for B1
B6: Copu9 (Coniophora puteana RWD-64-598 SS2; G194A) (protein)
chain: MSPTATFTTTSSEENAPTKFILPDLVSDCTYPLLLNDNCEPVARASEQWLIAGARLQEPRRTKFMGLLAGELTAACYPHADASHLRVCVDFMNWLFNMDDWLDDFDVDDTWGMRHCCLGAFRDPVGFETDKLGGLMSKSFFSRFRQDGGPGCTERFIHTMDLFFIAVAQQAGDRANGITPDLESYITVRRDTSACKPCFALIEYAAGIDLPDHVIYHPTLAAMEEATNDLVTWSNDIFSYNKEQVTDDTHNMIPVLMRERGLDLQGAVDFVGRLCKGTIERFETERARLPSWGPELDAQVQTYIEGLQNWIVGSLHWSFDSHRYFGKDGHAVKKHRIVKLLPKRVPQQA
notes: as for B1
B7: Copu9 (Coniophora puteana RWD-64-598 SS2; C195V) (protein)
chain: MSPTATFTTTSSEENAPTKFILPDLVSDCTYPLLLNDNCEPVARASEQWLIAGARLQEPRRTKFMGLLAGELTAACYPHADASHLRVCVDFMNWLFNMDDWLDDFDVDDTWGMRHCCLGAFRDPVGFETDKLGGLMSKSFFSRFRQDGGPGCTERFIHTMDLFFIAVAQQAGDRANGITPDLESYITVRRDTSGVKPCFALIEYAAGIDLPDHVIYHPTLAAMEEATNDLVTWSNDIFSYNKEQVTDDTHNMIPVLMRERGLDLQGAVDFVGRLCKGTIERFETERARLPSWGPELDAQVQTYIEGLQNWIVGSLHWSFDSHRYFGKDGHAVKKHRIVKLLPKRVPQQA
notes: as for B1
B8: Copu9 (Coniophora puteana RWD-64-598 SS2; C76V) (protein)
chain: MSPTATFTTTSSEENAPTKFILPDLVSDCTYPLLLNDNCEPVARASEQWLIAGARLQEPRRTKFMGLLAGELTAAVYPHADASHLRVCVDFMNWLFNMDDWLDDFDVDDTWGMRHCCLGAFRDPVGFETDKLGGLMSKSFFSRFRQDGGPGCTERFIHTMDLFFIAVAQQAGDRANGITPDLESYITVRRDTSGCKPCFALIEYAAGIDLPDHVIYHPTLAAMEEATNDLVTWSNDIFSYNKEQVTDDTHNMIPVLMRERGLDLQGAVDFVGRLCKGTIERFETERARLPSWGPELDAQVQTYIEGLQNWIVGSLHWSFDSHRYFGKDGHAVKKHRIVKLLPKRVPQQA
notes: as for B1
B9: Copu9 (Coniophora puteana RWD-64-598 SS2) (protein)
chain: MSPTATFTTTSSEENAPTKFILPDLVSDCTYPLLLNDNCEPVARASEQWLIAGARLQEPRRTKFMGLLAGELTAACYPHADASHLRVCVDFMNWLFNMDDWLDDFDVDDTWGMRHCCLGAFRDPVGFETDKLGGLMSKSFFSRFRQDGGPGCTERFIHTMDLFFIAVAQQAGDRANGITPDLESYITVRRDTSGCKPCFALIEYAAGIDLPDHVIYHPTLAAMEEATNDLVTWSNDIFSYNKEQVTDDTHNMIPVLMRERGLDLQGAVDFVGRLCKGTIERFETERARLPSWGPELDAQVQTYIEGLQNWIVGSLHWSFDSHRYFGKDGHAVKKHRIVKLLPKRVPQQA
notes: as for B1
B10: Copu9, (+)-δ-cadinol synthase from Coniophora puteana (enzyme, UniProt A0A5M3MXY8 1-349, looked up)
chain: MSPTATFTTTSSEENAPTKFILPDLVSDCTYPLLLNDNCEPVARASEQWLIAGARLQEPRRTKFMGLLAGELTAACYPHADASHLRVCVDFMNWLFNMDDWLDDFDVDDTWGMRHCCLGAFRDPVGFETDKLGGLMSKSFFSRFRQDGGPGCTERFIHTMDLFFIAVAQQAGDRANGITPDLESYITVRRDTSGCKPCFALIEYAAGIDLPDHVIYHPTLAAMEEATNDLVTWSNDIFSYNKEQVTDDTHNMIPVLMRERGLDLQGAVDFVGRLCKGTIERFETERARLPSWGPELDAQVQTYIEGLQNWIVGSLHWSFDSHRYFGKDGHAVKKHRIVKLLPKRVPQQA
notes: Copu9, sesquiterpene synthase ((+)-δ-cadinol synthase) of Coniophora puteana, XP_007765560; codon-optimised open reading frame; the crystal structure is complete except for the 13 N-terminal residues; no removal of the tag is described; Crystallised with three Mg2+ ions and alendronate (AHD); also called Copu9 WT; Copu9·Mg3·AHD; source: E. coli BL21 RIL DE3, purified (Ni2+-NTA, size exclusion …)

Substrate in one data set: CC(C)=CCC/C(C)=C/CC/C(C)=C/CO[P@@](=O)(O)OP(=O)(O)O
Briefly: purified protein. As to conditions: 25 °C, FPP 0-70 µM in methanol, 0.8–1.2 µM enzyme. The format is biochemical, Coniophora puteana.
For the molecule B1, the Km stood at 4.42 ± 0.59 µM, the turnover number (kcat) was determined as 0.0262 ± 0.0007 s⁻¹ and the kcat/Km came to 5940 M⁻¹ s⁻¹.

In the case of B2, the Km is 5.10 ± 0.54 µM, the kcat worked out at 0.0192 ± 0.0005 s⁻¹ and the kcat/Km was 3760 M⁻¹ s⁻¹.

As for B3, the Km was determined as 6.82 ± 0.77 µM, the kcat came to 0.0381 ± 0.001 s⁻¹ and the kcat/Km came out at 5580 M⁻¹ s⁻¹.

On to B4, for which the Km is 8.28 ± 0.60 µM, the kcat was determined as 0.0396 ± 0.0008 s⁻¹ and the specificity constant (kcat/Km) stood at 4780 M⁻¹ s⁻¹.

For the molecule B5, the Km was 6.28 ± 1.37 µM, the kcat stood at 0.0502 ± 0.0026 s⁻¹ and the catalytic efficiency (kcat/Km) stood at 8000 M⁻¹ s⁻¹.

Regarding B6, the Michaelis-Menten constant (Km) stood at 7.00 ± 0.37 µM, the kcat was 0.036 ± 0.0005 s⁻¹ and the catalytic efficiency (kcat/Km) was determined as 5140 M⁻¹ s⁻¹.

As to B7, the Km is reported as 8.48 ± 0.51 µM, the kcat came out at 0.0398 ± 0.0007 s⁻¹ and the kcat/Km is 4690 M⁻¹ s⁻¹.

On to B8, for which the Michaelis constant (Km) was 3.14 ± 0.45 µM, the kcat came out at 0.0291 ± 0.0007 s⁻¹ and the kcat/Km is 9250 M⁻¹ s⁻¹.

Regarding B9, the Km was determined as 4.59 ± 0.17 µM, the kcat is 0.0324 ± 0.0003 s⁻¹ and the kcat/Km is 7070 M⁻¹ s⁻¹.

For the next data set, the target named is T1, Copu5 (Coniophora puteana, UniProt A0A5M3MX24).
T1 construct: full-length, codon-optimized, N-terminal hexa-His tag (pET-M11) for thermal shift, expressed in E. coli BL21 RIL DE3; purified in pyrophosphate-containing buffer; pACYC-based operon in E. coli HMS174 (DE3) for terpene production
T1 sequence (A0A5M3MX24 entry or part of it): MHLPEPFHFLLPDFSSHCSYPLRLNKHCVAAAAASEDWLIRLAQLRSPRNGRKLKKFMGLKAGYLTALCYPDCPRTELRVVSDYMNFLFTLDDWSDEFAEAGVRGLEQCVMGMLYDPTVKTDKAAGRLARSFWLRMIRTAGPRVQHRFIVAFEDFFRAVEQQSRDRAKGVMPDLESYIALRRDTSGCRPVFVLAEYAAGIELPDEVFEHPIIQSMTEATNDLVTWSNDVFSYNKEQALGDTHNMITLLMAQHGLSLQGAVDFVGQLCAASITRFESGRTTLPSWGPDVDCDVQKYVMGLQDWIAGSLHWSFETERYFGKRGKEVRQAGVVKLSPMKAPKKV
Kind of data set: sesquiterpene production in E. coli, GC-MS and NMR of product. Type of data set: cell-based. The conditions noted are these: E. coli HMS174 (DE3) with DXS and IDI co-expression, endogenous FPP; product (+)-δ-cadinol.
On to `CC(C)=CCC/C(C)=C/CC/C(C)=C/COP(=O)(O)OP(=O)(O)O` [FPP], for which the “sesquiterpene production in E. coli, GC-MS and NMR of product” value is “catalyze the formation of (+)-δ-cadinol as main product from its direct precursor FPP”.

A further data set deals with the molecule itself. Briefly: SEC; HighLoad Superdex S200 16/60; 20 mM Tris/HCl pH 7.5, 150 mM NaCl, 5 mM MgCl2; calibrated with a high molecular weight standard.
Settings: not given
For orientation: SEC sorts molecules by how far they enter the pores of the column.
With B10, the “stoichiometry N” value came to 2.

For orientation: Km means the concentration of substrate that gives half-maximal velocity. A word on the kcat: it is the maximal rate divided by the concentration of active sites. As usually defined, the kcat/Km is the second-order rate constant that governs catalysis at low substrate concentration. One may read the stoichiometry N as a count of units in the complex or per binding partner.
